Experimental data: patent EP4667489A1 (Kyinno Biotechnology Co., Ltd., dated 2025)
Read-outs that look alike come from different tables or passages of the source.

Key:
[1] = molecular target: T1, LAG3-hFc (fusion protein of the human LAG3 extracellular domain and human IgG1-Fc) (human, UniProt P18627 23-450); assay: flow cytometry, blocking of LAG3 fusion protein binding to Daudi cells (procedure of Example 5)
T1 construct: extracellular domain; not shown: human IgG1-Fc, Genbank CAC20454.1
T1 sequence (looked up): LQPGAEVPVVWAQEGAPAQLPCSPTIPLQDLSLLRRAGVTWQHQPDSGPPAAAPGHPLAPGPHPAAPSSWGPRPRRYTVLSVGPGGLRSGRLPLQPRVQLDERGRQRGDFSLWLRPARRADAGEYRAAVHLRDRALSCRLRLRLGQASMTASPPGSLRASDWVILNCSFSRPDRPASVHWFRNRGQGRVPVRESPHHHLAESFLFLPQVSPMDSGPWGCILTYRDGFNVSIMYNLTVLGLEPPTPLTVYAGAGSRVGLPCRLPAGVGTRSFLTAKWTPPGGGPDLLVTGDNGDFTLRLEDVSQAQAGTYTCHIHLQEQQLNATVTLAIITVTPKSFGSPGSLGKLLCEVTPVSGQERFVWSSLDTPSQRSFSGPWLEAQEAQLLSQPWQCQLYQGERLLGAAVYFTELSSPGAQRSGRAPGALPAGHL

[2] = molecular target: T2, human PD1 expressed on 293T-PD1 cells (human, UniProt Q15116 25-288); assay: flow cytometry on 293T-PD1 cells
T2 construct: whole, on cells; 293T cells stably expressing human PD1 (Kyinno KC-0204); also called PD1-expressing cells; Jurkat NFAT-PD1-luc cells
T2 sequence (Q15116 25-288): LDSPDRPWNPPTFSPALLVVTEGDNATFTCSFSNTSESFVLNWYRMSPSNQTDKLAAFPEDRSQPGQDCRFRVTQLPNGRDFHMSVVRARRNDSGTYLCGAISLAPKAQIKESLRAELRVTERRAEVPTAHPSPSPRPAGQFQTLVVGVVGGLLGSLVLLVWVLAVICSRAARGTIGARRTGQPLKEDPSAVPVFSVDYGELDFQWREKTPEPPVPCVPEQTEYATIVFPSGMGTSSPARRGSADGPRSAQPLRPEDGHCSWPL

[3] = molecular target: T3, human LAG3 expressed on 293T-LAG3 cells (human, UniProt P18627 23-525); assay: flow cytometry on 293T-LAG3 cells
T3 construct: whole, on cells; 293T cells stably expressing human LAG3 (Kyinno KC-0214); also called LAG3-expressing cells
T3 sequence (looked up): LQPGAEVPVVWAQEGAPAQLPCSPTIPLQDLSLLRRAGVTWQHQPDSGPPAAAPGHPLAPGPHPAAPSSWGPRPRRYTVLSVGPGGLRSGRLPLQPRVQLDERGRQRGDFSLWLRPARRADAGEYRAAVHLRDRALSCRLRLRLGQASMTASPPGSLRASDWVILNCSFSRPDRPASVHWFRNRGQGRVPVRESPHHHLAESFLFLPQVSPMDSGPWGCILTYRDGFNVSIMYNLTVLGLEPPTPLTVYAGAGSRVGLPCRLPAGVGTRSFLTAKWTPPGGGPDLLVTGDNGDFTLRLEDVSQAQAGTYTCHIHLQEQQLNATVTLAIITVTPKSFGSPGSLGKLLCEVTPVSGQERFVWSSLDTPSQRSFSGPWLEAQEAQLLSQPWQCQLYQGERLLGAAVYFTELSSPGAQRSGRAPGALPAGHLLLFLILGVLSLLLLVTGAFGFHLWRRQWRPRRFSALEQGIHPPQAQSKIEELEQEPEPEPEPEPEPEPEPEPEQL

[4] = molecular target: T4, LAG3-His (ACRO, Cat No.: LA3-H5222) (UniProt P18627 23-450); assay: BLI (ForteBio Octet), LAG3-His as mobile phase
T4 construct: bought protein; not shown: His tag
T4 sequence (looked up): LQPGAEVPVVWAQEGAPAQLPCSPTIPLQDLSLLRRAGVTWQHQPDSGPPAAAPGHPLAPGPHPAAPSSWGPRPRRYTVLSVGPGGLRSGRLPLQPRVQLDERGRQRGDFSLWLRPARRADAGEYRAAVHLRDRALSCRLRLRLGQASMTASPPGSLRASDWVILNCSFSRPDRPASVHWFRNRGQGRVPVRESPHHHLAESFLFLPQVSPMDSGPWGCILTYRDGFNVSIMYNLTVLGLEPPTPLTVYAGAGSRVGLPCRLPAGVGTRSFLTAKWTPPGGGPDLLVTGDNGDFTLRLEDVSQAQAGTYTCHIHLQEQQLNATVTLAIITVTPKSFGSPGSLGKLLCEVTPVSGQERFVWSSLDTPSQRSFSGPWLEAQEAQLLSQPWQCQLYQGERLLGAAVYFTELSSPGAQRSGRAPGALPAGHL

[5] = molecular target: T5, PD1-His (Kyinno, Cat No.: KP-1023) (UniProt Q15116 25-167, limits assumed); assay: BLI (ForteBio Octet), PD1-His as mobile phase
T5 construct: bought protein; not shown: His tag
T5 sequence (Q15116 25-167 limits assumed): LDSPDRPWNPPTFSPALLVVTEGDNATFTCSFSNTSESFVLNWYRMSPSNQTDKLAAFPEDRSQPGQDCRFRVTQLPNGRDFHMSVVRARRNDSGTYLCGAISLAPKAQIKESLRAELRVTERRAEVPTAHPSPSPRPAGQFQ

[6] = molecular target: T6, PD1-hFc (fusion protein of the human PD1 extracellular domain and human IgG1-Fc) (human, UniProt Q15116 25-170); assay: flow cytometry, blocking of PD1 fusion protein binding to 293T-PDL1 cells (procedure of Example 8)
T6 construct: extracellular domain; also called human PD1-hFc; not shown: human IgG1-Fc, Genbank CAC20454.1
T6 sequence (Q15116 25-170): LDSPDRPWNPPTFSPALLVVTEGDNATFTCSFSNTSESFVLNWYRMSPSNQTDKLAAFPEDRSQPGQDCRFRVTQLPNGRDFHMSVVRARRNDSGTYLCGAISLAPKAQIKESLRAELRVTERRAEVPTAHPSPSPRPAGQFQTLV

[7] = molecular target: T3, human LAG3 expressed on 293T-LAG3 cells; assay: flow cytometry on 293T-LAG3 cells; remark: listed apart in the source
[8] = molecular target: T5, PD1-His (Kyinno, Cat No.: KP-1023); assay: BLI (ForteBio Octet), PD1-His as mobile phase; remark: listed apart in the source
[9] = molecular target: T2, human PD1 expressed on 293T-PD1 cells; assay: flow cytometry on 293T-PD1 cells; remark: listed apart in the source
[10] = molecular target: T1, LAG3-hFc (fusion protein of the human …); assay: flow cytometry, blocking of LAG3 fusion protein binding to Daudi cells (procedure of Example 5); remark: listed apart in the source
[11] = molecular target: T6, PD1-hFc (fusion protein of the human …); assay: flow cytometry, blocking of PD1 fusion protein binding to 293T-PDL1 cells (procedure of Example 8); remark: listed apart in the source
[12] = molecular target: T4, LAG3-His (ACRO, Cat No.: LA3-H5222); assay: BLI (ForteBio Octet), LAG3-His as mobile phase; remark: listed apart in the source

B1: KA-1835 H28G27V4×H107D1210-hIgG4M (bispecific antibody)
heavy 1: QVQLVESGGGLVKPGGSLRLSCAASGFTFSDYGMHWIRQAPGKGLEWVAYISSGSYTIYYADTVRDRFTISRDSAKNSLYLQMNSLRAEDTAVYYCVRRGPGYFGSTALDYWGQGTTVTVSSASTKGPSVFPLAPCSRSTSESTAALGCLVKDYFPEPVTVSWNSGALTSGVHTFPAVLQSSGLYSLSSVVTVPSSSLGTKTYTCNVDHKPSNTKVDKRVESKYGPPCPPCPAPEFLGGPSVFLFPPKPKDTLMISRTPEVTCVVVDVSQEDPEVQFNWYVDGVEVHNAKTKPREEQFNSTYRVVSVLTVLHQDWLNGKEYKCKVSNKGLPSSIEKTISKAKGQPREPQVCTLPPSQEEMTKNQVSLSCAVKGFYPSDIAVEWESNGQPENNYKTTPPVLDSDGSFFLVSRLTVDKSRWQEGNVFSCSVMHEALHNHYTQKSLSLSLG
heavy 2: QVQLQESGPGLVKPSETLSLTCTVSGYSFTSGYYWNWIRQPPGKGLEWIGYVSYFGTANYNPALKNRVTISRDTSKNQFSLKLSSVTAADTAVYYCARGEEWDWSFDVWGQGTTVTVSSASTKGPSVFPLAPCSRSTSESTAALGCLVKDYFPEPVTVSWNSGALTSGVHTFPAVLQSSGLYSLSSVVTVPSSSLGTKTYTCNVDHKPSNTKVDKRVESKYGPPCPPCPAPEFLGGPSVFLFPPKPKDTLMISRTPEVTCVVVDVSQEDPEVQFNWYVDGVEVHNAKTKPREEQFNSTYRVVSVLTVLHQDWLNGKEYKCKVSNKGLPSSIEKTISKAKGQPREPQVYTLPPCQEEMTKNQVSLWCLVKGFYPSDIAVEWESNGQPENNYKTTPPVLDSDGSFFLYSRLTVDKSRWQEGNVFSCSVMHEALHNHYTQKSLSLSLG
light: DIQITQSPSSLSASVGDRVTITCSATSGVSYMHWYQQKPGKAPKRLIYDTSRLASGVPSRFSGSGSGTDYTLTISSLQPEDFATYYCQQWSSNPPYTFGQGTRLEIKRTVAAPSVFIFPPSDEQLKSGTASVVCLLNNFYPREAKVQWKVDNALQSGNSQESVTEQDSKDSTYSLSSTLTLSKADYEKHKVYACEVTHQGLSSPVTKSFNRGEC
notes: PD1×LAG3 bispecific; first heavy chain targets PD1 (hIgG4 Hole), second targets LAG3 (hIgG4 Knob); common light chain 1
In the case of B1, the IC50 [1] is reported as 0.879 mg/L, the EC50 [2] is reported as 0.651 mg/L and the EC50 [3] is reported as 0.228 mg/L. For the same binder, the Kd [4] was 0.168 nM, the koff [4] was 0.000195 s⁻¹ and the kon [4] was 1.16e+06 M⁻¹ s⁻¹. For the same binder, the Kd [5] was 4.73 nM, the koff [5] was 0.00105 s⁻¹ and the kon [5] was 222000 M⁻¹ s⁻¹. For the same binder, the IC50 [6] was 0.435 mg/L.

B2: KA-1793 H28G27V4×H107D1210-hIgG4M (bispecific antibody)
heavy 1: QVQLVESGGGLVKPGGSLRLSCAASGFTFSDYGMHWIRQAPGKGLEWVAYISSGSYTIYYADTVRDRFTISRDSAKNSLYLQMNSLRAEDTAVYYCVRRGPGYFGSTALDYWGQGTTVTVSSASTKGPSVFPLAPCSRSTSESTAALGCLVKDYFPEPVTVSWNSGALTSGVHTFPAVLQSSGLYSLSSVVTVPSSSLGTKTYTCNVDHKPSNTKVDKRVESKYGPPCPPCPAPEFLGGPSVFLFPPKPKDTLMISRTPEVTCVVVDVSQEDPEVQFNWYVDGVEVHNAKTKPREEQFNSTYRVVSVLTVLHQDWLNGKEYKCKVSNKGLPSSIEKTISKAKGQPREPQVCTLPPSQEEMTKNQVSLSCAVKGFYPSDIAVEWESNGQPENNYKTTPPVLDSDGSFFLVSRLTVDKSRWQEGNVFSCSVMHEALHNHYTQKSLSLSLG
heavy 2: QVQLQESGPGLVKPSETLSLTCTVSGYSFTSGYYWNWIRQPPGKGLEWIGYVSYFGTANYNPALKNRVTISRDTSKNQFSLKLSSVTAADTAVYYCARGEEWDWSFDVWGQGTTVTVSSASTKGPSVFPLAPCSRSTSESTAALGCLVKDYFPEPVTVSWNSGALTSGVHTFPAVLQSSGLYSLSSVVTVPSSSLGTKTYTCNVDHKPSNTKVDKRVESKYGPPCPPCPAPEFLGGPSVFLFPPKPKDTLMISRTPEVTCVVVDVSQEDPEVQFNWYVDGVEVHNAKTKPREEQFNSTYRVVSVLTVLHQDWLNGKEYKCKVSNKGLPSSIEKTISKAKGQPREPQVYTLPPCQEEMTKNQVSLWCLVKGFYPSDIAVEWESNGQPENNYKTTPPVLDSDGSFFLYSRLTVDKSRWQEGNVFSCSVMHEALHNHYTQKSLSLSLG
light: DIQITQSPSSLSASVGDRVTITCSASSSVSYMHWYQQKPGKAPKRLIYDTSKLASGVPSRFSGSGSGTDYTLTISSLQPEDFATYYCQQWSSNPPYTFGQGTRLEIKRTVAAPSVFIFPPSDEQLKSGTASVVCLLNNFYPREAKVQWKVDNALQSGNSQESVTEQDSKDSTYSLSSTLTLSKADYEKHKVYACEVTHQGLSSPVTKSFNRGEC
notes: PD1×LAG3 bispecific; first heavy chain targets PD1 (hIgG4 Hole), second targets LAG3 (hIgG4 Knob); common light chain 2
B2 was tested, and the EC50 [7] was 0.0931 mg/L, the Kd [8] was 6.87 nM and the koff [8] was 0.00255 s⁻¹. For the same binder, the kon [8] was 372000 M⁻¹ s⁻¹, the EC50 [9] was 0.3 mg/L and the IC50 [10] was 0.88 mg/L. It also gave an IC50 [11] of 0.232 mg/L, a Kd [12] of 0.175 nM and a koff [12] of 0.000111 s⁻¹. For the same binder, the kon [12] was 633000 M⁻¹ s⁻¹.

B3: KA-1836 H107D1210×H28G27V4-hIgG4M (bispecific antibody)
heavy 1: QVQLVESGGGLVKPGGSLRLSCAASGFTFSDYGMHWIRQAPGKGLEWVAYISSGSYTIYYADTVRDRFTISRDSAKNSLYLQMNSLRAEDTAVYYCVRRGPGYFGSTALDYWGQGTTVTVSSASTKGPSVFPLAPCSRSTSESTAALGCLVKDYFPEPVTVSWNSGALTSGVHTFPAVLQSSGLYSLSSVVTVPSSSLGTKTYTCNVDHKPSNTKVDKRVESKYGPPCPPCPAPEFLGGPSVFLFPPKPKDTLMISRTPEVTCVVVDVSQEDPEVQFNWYVDGVEVHNAKTKPREEQFNSTYRVVSVLTVLHQDWLNGKEYKCKVSNKGLPSSIEKTISKAKGQPREPQVYTLPPCQEEMTKNQVSLWCLVKGFYPSDIAVEWESNGQPENNYKTTPPVLDSDGSFFLYSRLTVDKSRWQEGNVFSCSVMHEALHNHYTQKSLSLSLG
heavy 2: QVQLQESGPGLVKPSETLSLTCTVSGYSFTSGYYWNWIRQPPGKGLEWIGYVSYFGTANYNPALKNRVTISRDTSKNQFSLKLSSVTAADTAVYYCARGEEWDWSFDVWGQGTTVTVSSASTKGPSVFPLAPCSRSTSESTAALGCLVKDYFPEPVTVSWNSGALTSGVHTFPAVLQSSGLYSLSSVVTVPSSSLGTKTYTCNVDHKPSNTKVDKRVESKYGPPCPPCPAPEFLGGPSVFLFPPKPKDTLMISRTPEVTCVVVDVSQEDPEVQFNWYVDGVEVHNAKTKPREEQFNSTYRVVSVLTVLHQDWLNGKEYKCKVSNKGLPSSIEKTISKAKGQPREPQVCTLPPSQEEMTKNQVSLSCAVKGFYPSDIAVEWESNGQPENNYKTTPPVLDSDGSFFLVSRLTVDKSRWQEGNVFSCSVMHEALHNHYTQKSLSLSLG
light: DIQITQSPSSLSASVGDRVTITCSATSGVSYMHWYQQKPGKAPKRLIYDTSRLASGVPSRFSGSGSGTDYTLTISSLQPEDFATYYCQQWSSNPPYTFGQGTRLEIKRTVAAPSVFIFPPSDEQLKSGTASVVCLLNNFYPREAKVQWKVDNALQSGNSQESVTEQDSKDSTYSLSSTLTLSKADYEKHKVYACEVTHQGLSSPVTKSFNRGEC
notes: PD1×LAG3 bispecific; first heavy chain targets PD1 (hIgG4 Knob), second targets LAG3 (hIgG4 Hole); common light chain 1
For B3, the IC50 [1] was 0.972 mg/L, the EC50 [2] was 0.33 mg/L and the EC50 [3] was 0.557 mg/L. For the same binder, the Kd [4] was 0.18 nM, the koff [4] was 0.000266 s⁻¹ and the kon [4] was 1.48e+06 M⁻¹ s⁻¹. For the same binder, the Kd [5] was 6.55 nM, the koff [5] was 0.00116 s⁻¹ and the kon [5] was 178000 M⁻¹ s⁻¹. The IC50 [6] was 0.302 mg/L.
